Here are results for one molecule from patent publication US20210238298A1 (ALLIGATOR BIOSCIENCE, published 2021).

In assay [1] the target is T1, Human OX40 (R&D systems, #3358_OX) (human, UniProt P43489 29-216).
T1 construct: Bought; Several catalogue numbers are given for it; also called human OX40 (R&D Systems, 3388-OX); OX40-Fc (R&D systems, #3358_OX); not shown: Fc part
T1 sequence: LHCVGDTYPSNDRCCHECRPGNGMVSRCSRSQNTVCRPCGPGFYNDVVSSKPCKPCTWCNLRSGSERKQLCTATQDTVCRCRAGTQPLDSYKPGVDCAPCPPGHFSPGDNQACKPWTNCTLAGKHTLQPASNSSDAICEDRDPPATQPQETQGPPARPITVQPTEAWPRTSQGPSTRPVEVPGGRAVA
Nature of the assay: ELISA, coated recombinant human OX40. On the procedure: (§1) ELISA plates (Greiner #655074) were coated with 50 μl/well of recombinant human OX40 (R&D #1493-CD), CD40-Fc (Ancell #504-820) or CD137 (R&D #838-4B) diluted to a final concentration of 0.5 μg/ml in PBS for 1 h at 37° C. or overnight at 4° C. Plates were washed with PBS+0.05% TWEEN20 (PBST), followed by block with PBST+1% bovine serum albumin (BSA). Antibody samples were prepared as serial 1/10 dilutions from 10-0.01 μg/ml in PBST+1% BSA and incubated for 1h in room temperature, followed by detection using a horse radish peroxidase-conjugated anti-human kappa light chain antibody (AbD Serotec #STAR127P) and developed using SuperSignal ELISA Pico Chemiluminescent substrate (Pierce ThermoScientific #37069).
Background: In an ELISA, binding on a coated surface is turned into a signal by an enzyme label.

Assay [2] has as its target T2, extracellular part of cynomolgus CD137 fused to the transmembrane and intracellular part of hCD40, on CHO … (cynomolgus (Macaca fascicularis); human, UniProt A9YYE7 24-186; P25942 194-277).
T2 construct: extracellular domain;domain: transmembrane and intracellular part; also called CHO-cyCD137; cyno CD137
Nature of the assay: flow cytometry, CHO cells; against human CD137. On the procedure: (§2) Binding and EC50 to human and cynomolgus (Macaca fascicularis) CD137 was determined using flow cytometry of CHO cells transfected with human CD137, cynomolgus CD137 or empty vector. The extracellular part of human or cynomolgus CD137 was fused to the transmembrane and intracellular part of human CD40 and cloned into pcDNA3.0. The vector was subsequently stably transfected into CHO cells. […] CD137-transfected and empty vector-transfected cells were incubated with CD137 antibodies for at least 1h at 4° C. to saturate the binding. In order to minimize antibody internalization, 0.05% sodium azide was used in the incubation buffer and all work was performed on ice. […] Directly after staining the cells were fixed with a paraformaldehyde solution (10× concentrate BD CellFIX, BD biosciences #340181). Cells were analyzed by flow cytometry using FACSVerse (BD Biosciences). The median fluorescence intensity (MFI) for each sample was determined and the dose response data was analysed using Graph Pad Prism.
(§3) MFI data was normalized for each antibody, where 0% is defined as the lowest value and 100% is the highest value in the dose titration for each antibody.
On the technique in general: In flow cytometry, cells or beads pass a laser one at a time.

The target in assay [3] is T3, recombinant human CD137-Fc (R&D #838-4B) (human, UniProt Q07011 24-186).
T3 construct: Bought; also called Human CD137 (R&D systems); CD137 (R&D Systems); not shown: Fc part, not described
Nature of the assay: SPR (summary table); column headed ka (1/s).

Assay [4] deals with T4, extracellular part of human CD137 fused to the transmembrane and intracellular part of hCD40, on CHO cells (human, UniProt P25942 194-277, limits assumed).
T4 construct: domain: transmembrane and intracellular part; also called CHO-huCD137; human CD137 over-expressed on CHO cells
Nature of the assay: flow cytometry, CHO cells; 95% confidence interval. On the procedure: as §2, §3

Assay [5] has as its target T2, extracellular part of cynomolgus CD137 …. Nature of the assay: flow cytometry, CHO cells; 95% confidence interval. As to the method: as §2, §3
For assay [6], the target named is T4, extracellular part of human CD137 fused …. Nature of the assay: flow cytometry, CHO transfectants (summary table).
In assay [7] the target is construct 1030: full length human CD137, on FreeStyle 293-F cells (human, UniProt Q07011 24-255). Nature of the assay: flow cytometry, 293-F transfectants.
Assay [8] concerns the target T5, CD137 chimera 1553 (1410): human CD137 with mouse domains 3A, 3B and 4A (aa 87-133), on FreeStyle 293-F cells (human; mouse, UniProt P20334 86-133).
T5 construct: domain: 3A, 3B and 4A
Nature of the assay: flow cytometry, 293-F transfectants.

Assay [9] deals with T6, CD137 chimera 1550 (1407): human CD137 with mouse domains 1, 2A and 2B (aa 24-86), on FreeStyle 293-F cells (human; mouse, UniProt P20334 24-85).
T6 construct: domain: 1, 2A and 2B
Nature of the assay: flow cytometry, 293-F transfectants.

Assay [10] has as its target T7, CD137 chimera 1551 (1408): human CD137 with mouse domains 2A, 2B and 3A (aa 47-96), on FreeStyle 293-F cells (human; mouse, UniProt P20334 46-95).
T7 construct: domain: 2A, 2B and 3A
Nature of the assay: flow cytometry, 293-F transfectants.

Assay [11] concerns the target T8, CD137 chimera 1555 (1412): human CD137 with mouse domains 1 and 4B and region of unknown function (aa 24-46 … (human; mouse, UniProt P20334 24-45; P20334 139-185).
T8 construct: domain: 1;domain: 4B and region of unknown function
Nature of the assay: flow cytometry, 293-F transfectants.

The target in assay [12] is T9, CD137 chimera 1552 (1409): human CD137 with mouse domains 2B, 3A and 3B (aa 64-118), on FreeStyle 293-F cells (human; mouse, UniProt P20334 63-117).
T9 construct: domain: 2B, 3A and 3B
Nature of the assay: flow cytometry, 293-F transfectants.

Assay [13] deals with T10, CD137 chimera 1554 (1411): human CD137 with mouse domains 3B, 4A and 4B (aa 97-159), on FreeStyle 293-F cells (human; mouse, UniProt P20334 96-159).
T10 construct: domain: 3B, 4A and 4B
Nature of the assay: flow cytometry, 293-F transfectants.

Assay [14] concerns the target T3, recombinant human CD137-Fc (R&D #838-4B). Nature of the assay: ELISA, coated CD137-Fc; mean.
The target is the same in assay [15]. Nature of the assay: SPR (Biacore), immobilised human CD137, bivalent antibody in flow. As to the method:
Human CD137 (R&D systems) was immobilized to the Biacore™ sensorchip, CM5, using conventional amine coupling. The tested antibody and control (serially diluted ½ 10-0.63 nM) were analyzed for binding in HBS-P (GE, #BR-1003-68) at a flow rate of […]. The association was followed for 5 minutes and the dissociation for 15 minutes. Regeneration was performed twice using 10 mM Glycine pH 1.7 for 30 seconds. The kinetic parameters and the affinity constants were calculated using 1:1 Langmuir model.
For orientation: Surface plasmon resonance follows binding to a sensor surface in real time, without labels.

In a further assay the target is T11, CD40 (Ancell) (UniProt P25942 21-193).
T11 construct: also called CD40-Fc (Ancell #504-820); not shown: Fc part, not described
Nature of the assay: ELISA, coated CD40-Fc. As to the method:
as §1

Assay [16] deals with CD137 on primary human CD8+ T cells (human, UniProt Q07011 24-255). Nature of the assay: cell-based or functional assay.
In assay [17] the target is T3, recombinant human CD137-Fc (R&D #838-4B). Nature of the assay: SPR (summary table).

CD137 on primary human CD8+ T cells, sequence (Q07011 24-255 limits assumed): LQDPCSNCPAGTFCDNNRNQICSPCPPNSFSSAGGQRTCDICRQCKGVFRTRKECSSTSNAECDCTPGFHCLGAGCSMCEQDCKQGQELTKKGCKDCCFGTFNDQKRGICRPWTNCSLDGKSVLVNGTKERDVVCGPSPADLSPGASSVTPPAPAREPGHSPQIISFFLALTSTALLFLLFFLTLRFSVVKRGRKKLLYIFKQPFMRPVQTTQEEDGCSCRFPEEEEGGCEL
T3 sequence (Q07011 24-186 limits assumed): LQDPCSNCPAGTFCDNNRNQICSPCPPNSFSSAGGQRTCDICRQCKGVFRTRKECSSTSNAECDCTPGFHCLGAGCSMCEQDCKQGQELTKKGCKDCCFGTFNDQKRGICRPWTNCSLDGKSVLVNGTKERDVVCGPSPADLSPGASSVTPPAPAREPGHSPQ
T2 sequence (P25942 other isoform, or with tags, fused parts or gaps): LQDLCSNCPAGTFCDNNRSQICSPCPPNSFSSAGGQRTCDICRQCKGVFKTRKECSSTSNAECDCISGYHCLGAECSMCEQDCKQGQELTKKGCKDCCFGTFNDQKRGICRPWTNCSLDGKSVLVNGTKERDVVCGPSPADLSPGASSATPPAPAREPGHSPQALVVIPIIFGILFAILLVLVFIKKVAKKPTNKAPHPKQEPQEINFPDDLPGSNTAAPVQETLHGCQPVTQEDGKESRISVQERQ
T4 sequence (P25942 other isoform, or with tags, fused parts or gaps limits assumed): as the sequence (P25942 other isoform, or with tags, fused parts or gaps) above, with L4P, S19N, K50R, I66T, S67P, Y69F, E75G, A149V counted along it
T6 sequence (P20334 other isoform, or with tags, fused parts or gaps mutant limits assumed): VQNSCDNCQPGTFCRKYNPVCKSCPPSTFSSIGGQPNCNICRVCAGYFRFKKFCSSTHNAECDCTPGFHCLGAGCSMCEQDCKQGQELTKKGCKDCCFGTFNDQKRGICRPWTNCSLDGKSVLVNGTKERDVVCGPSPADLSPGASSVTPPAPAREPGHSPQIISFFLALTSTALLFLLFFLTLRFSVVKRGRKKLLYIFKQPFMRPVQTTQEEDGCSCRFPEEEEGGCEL
T5 sequence (P20334 other isoform, or with tags, fused parts or gaps mutant limits assumed): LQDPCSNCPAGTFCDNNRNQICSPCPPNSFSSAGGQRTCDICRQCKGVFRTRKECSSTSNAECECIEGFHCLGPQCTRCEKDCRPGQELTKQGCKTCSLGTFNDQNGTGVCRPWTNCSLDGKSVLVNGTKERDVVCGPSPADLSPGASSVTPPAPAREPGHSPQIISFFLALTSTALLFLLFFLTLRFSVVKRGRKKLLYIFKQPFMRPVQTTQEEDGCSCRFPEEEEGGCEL
T11 sequence (P25942 21-193 limits assumed): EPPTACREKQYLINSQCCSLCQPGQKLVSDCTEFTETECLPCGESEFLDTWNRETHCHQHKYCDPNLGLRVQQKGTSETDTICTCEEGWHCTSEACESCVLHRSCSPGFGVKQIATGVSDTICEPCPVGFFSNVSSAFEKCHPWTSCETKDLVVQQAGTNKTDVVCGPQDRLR
construct 1030: full length human CD137, on FreeStyle 293-F cells, sequence (Q07011 24-255 limits assumed): as the sequence (Q07011 24-255 limits assumed) above
T7 sequence (P20334 other isoform, or with tags, fused parts or gaps mutant limits assumed): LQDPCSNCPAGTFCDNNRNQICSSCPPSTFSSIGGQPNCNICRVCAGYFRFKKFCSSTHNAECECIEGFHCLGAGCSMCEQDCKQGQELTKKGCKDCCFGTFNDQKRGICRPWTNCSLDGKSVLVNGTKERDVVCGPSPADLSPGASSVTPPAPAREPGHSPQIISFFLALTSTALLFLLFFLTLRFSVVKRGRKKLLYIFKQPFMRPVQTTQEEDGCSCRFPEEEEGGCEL
T10 sequence (P20334 other isoform, or with tags, fused parts or gaps mutant limits assumed): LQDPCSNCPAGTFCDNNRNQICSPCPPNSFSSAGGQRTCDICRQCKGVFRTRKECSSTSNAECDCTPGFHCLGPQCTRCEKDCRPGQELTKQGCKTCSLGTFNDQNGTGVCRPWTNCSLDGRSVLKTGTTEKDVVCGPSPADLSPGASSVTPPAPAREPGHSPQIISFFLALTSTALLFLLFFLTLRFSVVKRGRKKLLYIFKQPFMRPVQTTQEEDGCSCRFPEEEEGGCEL
T9 sequence (P20334 other isoform, or with tags, fused parts or gaps mutant limits assumed): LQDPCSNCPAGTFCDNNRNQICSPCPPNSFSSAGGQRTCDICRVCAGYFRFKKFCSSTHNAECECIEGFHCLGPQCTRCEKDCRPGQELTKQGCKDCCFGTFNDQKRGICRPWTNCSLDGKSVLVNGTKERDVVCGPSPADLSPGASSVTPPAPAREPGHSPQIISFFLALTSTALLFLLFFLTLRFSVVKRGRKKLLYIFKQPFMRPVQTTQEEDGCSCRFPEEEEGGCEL
T8 sequence (P20334 other isoform, or with tags, fused parts or gaps mutant limits assumed): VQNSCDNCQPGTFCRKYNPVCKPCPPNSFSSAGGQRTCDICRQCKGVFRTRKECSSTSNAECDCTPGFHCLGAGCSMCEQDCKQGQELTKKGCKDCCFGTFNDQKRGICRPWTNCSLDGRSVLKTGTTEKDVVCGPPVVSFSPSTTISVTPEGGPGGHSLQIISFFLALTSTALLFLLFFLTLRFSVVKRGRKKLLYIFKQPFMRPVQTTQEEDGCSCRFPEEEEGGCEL

B1: anti-CD137 antibody 1618/1619 (antibody, IgG1, V domains shown)
VH: EVQLLESGGGLVQPGGSLRLSCAASGFTFSYGSMYWVRQAPGKGLEWVSSISSGSGSTYYADSVKGRFTISRDNSKNTLYLQMNSLRAEDTAVYYCARSSYYGSYYSIDYWGQGTLVTVSS
VL: DIQMTQSPSSLSASVGDRVTITCRASQSISSYLNWYQQKPGKAPKLLIYAASSLQSGVPSRFSGSGSGTDFTLTISSLQPEDFATYYCQQYYDNLPTFGQGTKLEIK
notes: Produced as IgG; also called 1618-bio
With B1, the binding result (in [1]; with CD40 (Ancell)) was “no binding (tested: 10 µg/ml)” throughout. Moreover, the “Ratio, cyno:human (EC50)” value in assay [2] came to 0.77. In addition, the figures for the koff in assay [3] and in assay [15] were 0.0001 s⁻¹ and 0.00011 s⁻¹, respectively. Further, the EC50 (in general, the midpoint of the concentration-response curve) in assay [4] is 0.11 to 0.19 µg/mL; in assay [5] it was 0.086 to 0.15 µg/mL; in assay [6], 0.11 to 0.19 µg/mL; in assay [14], 0.35 nM. The “relative binding (MFI sample/isotype control, normalised to full-length human CD137)” value in [7] worked out at 1; in assay [8] it was 1.24; in assay [9] it was 0.11; in assay [10], 0.67; in assay [11], 0.12; in assay [12], 1.2. The “relative binding (MFI sample/isotype control, normalised to full-length human CD137)” value in [13] was 1.01. The Kd amounted to 0.107 nM in assay [15] and 0.1 nM in [17]. For the same molecule, the kon – broadly, a measure of how fast the partners come together – worked out at 1.02e+06 M⁻¹ s⁻¹ in [15] and 1e+06 M⁻¹ s⁻¹ in [17]. In [16], the “Max IFN-γ” value came to 111000 pg/mL. In [16], the “Mean IFN-γ” value was determined as 33600 pg/mL. The “Min IFN-γ” value in [16] is 7380 pg/mL.
